From article doi:10.1101/2022.09.29.510028 (bioRxiv, 2022)
Values joined by “and” are separate entries in the source; they are usually repeats but may differ in a detail not shown here. Equal entries are not always repeated. Where two headings read alike, the source gives them in different places.

B1: NPM1_(188) (NTD and the acidic regions of the IDR, residues 1-188) (domain or fragment)
chain: MEDSMDMDMSPLRPQNYLFGCELKADKDYHFKVDNDENEHQLSLRTVSLGAGAKDELHIVEAEAMNYEGSPIKVTLATLKMSVQPTVSLGGFEITPPVVLRLKCGSGPVHISGQHLVAVEEDAESEDEEEEDVKLLSISGKRSAPGGGSKVPQKKVKLAADEDDDDDDEEDDDEDDDDDDFDDEEAEE
B2: NPM1_(ΔIDR) (NTD and CTD linked without the IDR) (other)
chain: MEDSMDMDMSPLRPQNYLFGCELKADKDYHFKVDNDENEHQLSLRTVSLGAGAKDELHIVEAEAMNYEGSPIKVTLATLKMSVQPTVSLGGFEITPPVVLRLKCGSGPVHISGQHLVAVEPSSVEDIKAKMQASIEKGGSLPKVEAKFINYVKNCFRMTDQEAIQDLWQWRKSL
B3: NPM1_(120) (N-terminal domain, residues 1-120) (domain or fragment)
chain: MEDSMDMDMSPLRPQNYLFGCELKADKDYHFKVDNDENEHQLSLRTVSLGAGAKDELHIVEAEAMNYEGSPIKVTLATLKMSVQPTVSLGGFEITPPVVLRLKCGSGPVHISGQHLVAVE
B4: rpL5_(21-37) (residues 21-37 of ribosomal protein L5) (peptide)
peptide: RRRREGKTDYYARKRLV

Columns and labels:
Experiment in all cases: native MS
native MS [1] = target: the molecule itself
native MS [2] = target: the molecule itself; remark: listed apart in the source
[3] = target: Nucleophosmin 1, full-length (FL NPM1) (human)
[4] = target: B3

Binder: B1
- stoichiometry N (native MS [1]): 5 and 10

Binder: B2
- stoichiometry N (native MS [1]): 10 and 5

Binder: B3
- stoichiometry N (native MS [2]): ≥ 25 subunits

Binder: B4
- binding result [3]: binds
- binding result [4]: binds
